Patent US20240277803A1, “NME INHIBITORS AND METHODS OF USING NME INHIBITORS” (Minerva Biotechnologies Corporation, priority 2013, published 2024)
Like-named read-outs stand apart in the source and are kept apart here.

Assays:
[1] = target: T1, PSMGFR peptide of the MUC1* extracellular domain (Homo sapiens, UniProt P15941); assay: SPR and nanoparticle binding of NME1 multimers to PSMGFR peptide (FIG. 17); set-up: the PSMGFR peptide of the MUC1* extracellular domain is immobilized on the chip; conditions: for binding to MUC1* extracellular domain peptide (PSMGFR): SPR chip or gold nanoparticles
T1 sequence (P15941 1110-1154 limits assumed): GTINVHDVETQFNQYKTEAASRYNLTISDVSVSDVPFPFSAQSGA
Description: MUC1* extra cellular domain peptide was immobilized onto gold nanoparticles.
(§1) By contrast, NME1 is roughly half the molecular weight of NME7 (˜17 kDa) and has only one NDPK domain. NME1 acts as a growth factor that promotes growth and inhibits differentiation only when it is a dimer. At higher concentrations, NME1 can form hexamers. […] Thus, NME1, which is expressed later in embryogenesis, has the ability to turn itself off, thus limiting self-replication, while NME7 cannot. Wild type (wt) NME1 exists primarily as a hexamer at measurable concentrations. Mutant NME1 proteins, such as S120G that form stable dimer populations have been isolated from cancers and thus are continuously activating the MUC1* receptor. We made recombinant NME1-wt, and the S120G mutant. By varying refolding protocols we were able to stabilize populations that were essentially 100% hexamer or 100% dimer. In addition we isolated populations of NME1-S120G that were a mixture of dimer, tetramer and hexamer. […] In nature, when the concentration of stem cells reaches critical mass and their secretions of NME1 reaches the concentration at which they form hexamers, differentiation is induced. FIG. 18 is a cartoon depicting the mechanism, supported by experiments described herein, by which NME7 and NME1 function to promote pluripotency wherein NME1 regulates itself.

human stem cells = assay: human stem cell culture in NME1 dimers or hexamers (FIG. 17D-G); assay type: cell-based
Description: as §1

[2] = target: T2, MUC1* extra cellular domain peptide (Homo sapiens, UniProt P15941); assay: gold nanoparticle binding assay, NME7 and MUC1* peptide (FIG. 7); conditions: protein added free in solution
T2 sequence (P15941 with tags, fused parts or gaps): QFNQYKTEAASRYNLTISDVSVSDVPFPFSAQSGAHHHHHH
Procedure: Gold nanoparticles of a diameter of 30.0 nm were coated with an NTA-SAM surface according to Thompson et al. (ACS Appl. Mater. Interfaces, 2011, 3 (8), pp 2979-2987). The NTA-SAM coated gold nanoparticles were then activated with an equal volume of 180 uM NiSO4, incubated for 10 min at room temperature, washed, and resuspended in a 10 mM phosphate buffer ([…]). The gold nanoparticles were then loaded with PSMGER N-10 peptide ([…] (SEQ ID NO:155)) at 0.5 uM final concentration, and incubated at room temperature for 10 min. Recombinant NME7-AB protein expressed and purified from E. coli was added free in solution at the concentrations indicated. When particle-immobilized proteins bind to each other, or simultaneously bind to two different peptides on two different particles, the particle solution color changes from pink/red to purple/blue. If the protein added free in solution causes particle aggregation, it is strong evidence that the free protein dimerizes the cognate peptide, since binding to a single peptide would not induce two or more particles to be brought into close proximity to each other.
The NME7-AB is added free in solution at the concentrations indicated. Solution color change from pink to purple/blue from particle aggregation indicates binding between the MUC1* peptide on the particles and NME7 free in solution. […] Particle aggregation, indicating NME7 can simultaneously bind to two peptides is observed. […] The T47D breast cancer cell line Lysate, which contains native NME7 turns noticeably purple also.

Human stem cells (iPS) = assay: human iPS stem cell culture in NME7-AB or NM23-H1 dimers; assay type: cell-based; conditions: 8 nM in minimal media over MN-C3 surface
Procedure: Testing recombinant NME7 for ability to maintain pluripotency and inhibit differentiation. A soluble variant of NME7, NME7-AB, was generated and purified. Human stem cells (iPS cat #SC101a-1, System Biosciences) were grown per the manufacturer's directions in 4 ng/ml bFGF over a layer of mouse fibroblast feeder cells for four passages. These source stem cells were then plated into 6-well cell culture plates (Vita™, Thermo Fisher) that had been coated with 12.5 ug/well of a monoclonal anti-MUC1* antibody, MN-C3. Cells were plated at a density of 300,000 cells per well. The base media was Minimal Stem Cell Media consisting of: 400 ml DME/F12/GlutaMAX I (Invitrogen #10565-018), 100 ml Knockout Serum Replacement (KO-SR, Invitrogen #10828-028), 5 ml 100×MEM Non-essential Amino Acid Solution (Invitrogen#11140-050) and 0.9 ml (0.1 mM) β-mercaptoethanol (55 mM stock, Invitrogen #21985-023). The base media can be any media. In a preferred embodiment, the base media is free of other growth factors and cytokines. To the base media was added either 8 nM of NME7-AB or 8 nM NM23-H1 refolded and purified as stable dimers. Media was changed every 48 hours and due to accelerated growth had to be harvested and passaged at Day 3 post-plating. FIGS. 9 and 10 document the day by day comparison of growth in NM23-H1 dimers to growth in NME7 monomers. […] Cell counts at the first harvest verified that culture in NME7 produced 1.4-times more cells than culture in NM23-H1 dimers.

[3] = target: T1, PSMGFR peptide of the MUC1* extracellular domain; assay: ELISA of NME6 binding to PSMGFR peptide (FIG. 19)
Description: NME6 is also expressed in very early embryogenesis. NME6 is reportedly a dimer in some species such as sea sponge. NME6 must be expressed at high enough levels that it can form dimers before it can activate growth and inhibit differentiation. Thus, it is expressed at a later stage than NME7. […] We made recombinant NME6 as the wild type protein, or with a single point mutation S139G, which mimics the S120G mutation that causes NME1 to prefer dimer formation. In addition, another NME6 variant was made so that in this sensitive area, the human NME6 would look like sea sponge NME6, which reportedly exists as a dimer. These mutations are S139A plus V142D and V143A. […] In part A, NME6-wt is purified as the monomer or as a high molecular weight multimer. […] In part B, the NME6 multimers are dissociated by dilution in SDS. […] The gels of FIG. 19 D-H show expression of NME6-wt (D), NME6 with the S139G mutation that corresponds to the mutation S120G which in human NME1 increases dimer formation (E), NME6 bearing three mutations that make the human form mimic the sea sponge form that is reported to be a dimer (F), and a single chain protein linking two NME6 proteins (G,H). […] Thus an effective anti-cancer agent would be an antibody, small molecule or other agent that disrupts binding of NME6 dimers to MUC1* extra cellular domain peptide. […]

Substance | binding to MUC1* extracellular domain peptide (PSMGFR) ([1]; listed as NM23 dimers) | binding to MUC1* extracellular domain peptide (PSMGFR) ([1]; listed as dimer form of NME1) | binding to N-10 version of the PSMGFR peptide ([1]; first 10 amino acids of PSMGFR omitted) | pluripotent stem cell growth / differentiation (human stem cells) | binding to MUC1* peptide on nanoparticles (color change pink to purple/blue) [2] | stem cell growth, pluripotency and differentiation (Human stem cells (iPS)) | binding to PSMGFR peptide (ELISA) [3] | binding to PSMGFR peptide (ELISA) ([3]; listed as NME6 monomer)
NME1 dimers: recombinant NME1 (NM23-H1) S120G mutant refolded and purified as stable dimers | bind to the cognate receptor MUC1* | binds to the MUC1* extracellular domain | bind to the N-10 version of the PSMGFR peptide | promote pluripotent stem cell growth | began to change almost immediately to purple | no differentiation | – | –
NME1 hexamers: recombinant NME1 in hexamer form | – | – | – | induce differentiation | – | – | – | –
NME6: recombinant human NME6 wild type protein | – | – | – | – | – | – | binds to the PSMGFR peptide | preferential binding
